For one molecule, Ka results are on record in patent publication US20180246086A1.

This test has as its target Hapten-1-BSA, a general complete antigen of type I pyrethroid (bovine) (UniProt P02769). Description: indirect non-competitive ELISA, plate coated with Hapten-1-BSA at 2.0, 1.0, 0.5 and 0.25 µg/mL, antibody titrated. A general note: An ELISA detects its analyte on a solid surface through an enzyme-linked reagent.

Chain of Hapten-1-BSA, a general complete antigen of type I pyrethroid (bovine) (P02769 25-607 limits assumed, form in doubt): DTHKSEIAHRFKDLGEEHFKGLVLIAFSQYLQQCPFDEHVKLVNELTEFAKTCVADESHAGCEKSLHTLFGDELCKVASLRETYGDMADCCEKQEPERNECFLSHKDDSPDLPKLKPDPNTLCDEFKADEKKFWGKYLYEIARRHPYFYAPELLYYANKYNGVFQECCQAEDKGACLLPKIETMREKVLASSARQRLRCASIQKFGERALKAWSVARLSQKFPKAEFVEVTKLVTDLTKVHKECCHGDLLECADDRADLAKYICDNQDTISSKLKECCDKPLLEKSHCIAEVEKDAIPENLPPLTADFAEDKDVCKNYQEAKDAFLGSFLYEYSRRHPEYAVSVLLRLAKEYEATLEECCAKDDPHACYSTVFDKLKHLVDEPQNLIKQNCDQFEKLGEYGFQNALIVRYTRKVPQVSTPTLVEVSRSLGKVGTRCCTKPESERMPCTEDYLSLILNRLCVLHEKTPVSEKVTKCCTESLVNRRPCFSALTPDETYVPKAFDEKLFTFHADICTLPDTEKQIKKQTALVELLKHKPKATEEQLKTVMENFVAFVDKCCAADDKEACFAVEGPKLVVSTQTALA

B1: universal monoclonal antibody against type I pyrethroid secreted by hybridoma cell line QW8# (antibody, IgG2a, V domains shown)
VH: QVTLKESGPGILQPSQTLSLTCSFSGFSLSTYGIGIGWIRQSSGRGLEWLAHIWWNDNRYYNIALKSRLTISKDASNNQFFLKLASVDTADIATYYCVRGYGRPFYAMDYWGQGTTVTVSS
VL: QAVVTQESALTTSPGETVTLTCRSSTGAVTTSNYVNWVQEKPDHLFTGLIGGTNNRGPGVPARFSGSLIGDKAALTITGTQTEDEAIYFCALWYSNHWVFGGGTKLTVL
B1 yielded a Ka of 2.16e+08 M⁻¹.
